For eight molecules, Kd results are on record in publication doi:10.1101/2025.09.25.678639, “The DND1–NANOS3 complex shapes the primordial germ cell transcriptome via a heptanucleotide sequence in mRNA 3′ UTRs”.

What is called Kd is the free concentration of one partner at which half of the binding sites on the other are occupied at equilibrium, for simple one-to-one binding.

For one series, the target named is DND1 K196A;NANOS3 ZF+C (human;human, UniProt Q8IYX4;P60323 1-230;55-173, K196A|). Put plainly: MST; DND1 titrated, 2 uM NANOS3 ZF+C; MST: 20 mM HEPES pH 7.4, 150 mM NaCl, 1 mM DTT, 0.05% Tween20 and 10 ug/mL yeast tRNA after 1:1 mixing, 5 nM Cy5-RNA, partner 2 uM final, 30 min at room temperature, measured at 25 C. To be noted: protein: recombinant;recombinant; tags: His6-SUMO removed by Ulp1;His6-SUMO removed by Ulp1; N-terminal Ser (residue 54) from BamHI site; copies: 1;1; label: 5'-Cy5.

A further series deals with T1, DND1 1-230 (RRM1-RRM2) (human, UniProt Q8IYX4 1-230).
T1 sequence: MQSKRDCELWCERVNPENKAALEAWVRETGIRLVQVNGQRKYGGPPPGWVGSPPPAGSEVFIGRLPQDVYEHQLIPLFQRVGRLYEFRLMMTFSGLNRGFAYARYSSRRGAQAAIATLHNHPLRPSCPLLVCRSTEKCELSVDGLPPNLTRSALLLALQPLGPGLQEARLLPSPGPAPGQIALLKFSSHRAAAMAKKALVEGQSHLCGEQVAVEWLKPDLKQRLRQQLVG
The series can be described thus: MST; MST: 20 mM HEPES pH 7.4, 150 mM NaCl, 1 mM DTT, 0.05% Tween20 and 10 ug/mL yeast tRNA after 1:1 mixing, 5 nM Cy5-RNA, partner 2 uM final, 30 min at room temperature, measured at 25 C. To be noted: protein: recombinant; tags: His6-SUMO removed by Ulp1; N-terminal Ser (residue 0) from BamHI site; label: 5'-Cy5.

In series [1] the target is DND1 1-230 (RRM1-RRM2);NANOS3 ZF+C (human;human, UniProt Q8IYX4;P60323 1-230;55-173, |). The series can be described thus: MST; DND1 titrated, 2 uM NANOS3 ZF+C; MST: 20 mM HEPES pH 7.4, 150 mM NaCl, 1 mM DTT, 0.05% Tween20 and 10 ug/mL yeast tRNA after 1:1 mixing, 5 nM Cy5-RNA, partner 2 uM final, 30 min at room temperature, measured at 25 C. Particulars: protein: recombinant;recombinant; tags: His6-SUMO removed by Ulp1; N-terminal Ser (residue 0) from BamHI site;His6-SUMO removed by Ulp1; N-terminal Ser (residue 54) from BamHI site; copies: 1;1; label: 5'-Cy5.

The target of the next series is T2, DND1 13-230 (del1-12) (human, UniProt Q8IYX4 13-230, del1-12).
T2 sequence: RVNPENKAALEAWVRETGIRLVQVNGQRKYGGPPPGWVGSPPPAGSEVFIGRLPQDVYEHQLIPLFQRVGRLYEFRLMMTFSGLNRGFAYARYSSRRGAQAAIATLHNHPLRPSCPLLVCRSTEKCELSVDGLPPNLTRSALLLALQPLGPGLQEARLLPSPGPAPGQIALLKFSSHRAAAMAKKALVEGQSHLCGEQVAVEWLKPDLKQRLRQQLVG
Put plainly: MST; MST: 20 mM HEPES pH 7.4, 150 mM NaCl, 1 mM DTT, 0.05% Tween20 and 10 ug/mL yeast tRNA after 1:1 mixing, 5 nM Cy5-RNA, partner 2 uM final, 30 min at room temperature, measured at 25 C. To be noted: protein: recombinant; tags: His6-SUMO removed by Ulp1; label: 5'-Cy5.

Series [2] concerns the target DND1 13-230 (del1-12);NANOS3 ZF (ZF1-ZF2) (human;human, UniProt Q8IYX4;P60323 13-230;55-113, del1-12|). The series can be described thus: MST; DND1 titrated, 2 uM NANOS3 ZF; MST: 20 mM HEPES pH 7.4, 150 mM NaCl, 1 mM DTT, 0.05% Tween20 and 10 ug/mL yeast tRNA after 1:1 mixing, 5 nM Cy5-RNA, partner 2 uM final, 30 min at room temperature, measured at 25 C. Particulars: protein: recombinant;recombinant; tags: His6-SUMO removed by Ulp1;His6-SUMO removed by Ulp1; N-terminal Ser (residue 54) from BamHI site; copies: 1;1; label: 5'-Cy5.

The next series has as its target DND1 F93A;NANOS3 ZF+C (human;human, UniProt Q8IYX4;P60323 1-230;55-173, F93A|). The series can be described thus: MST; DND1 titrated, 2 uM NANOS3 ZF+C; MST: 20 mM HEPES pH 7.4, 150 mM NaCl, 1 mM DTT, 0.05% Tween20 and 10 ug/mL yeast tRNA after 1:1 mixing, 5 nM Cy5-RNA, partner 2 uM final, 30 min at room temperature, measured at 25 C. Particulars: protein: recombinant;recombinant; tags: His6-SUMO removed by Ulp1;His6-SUMO removed by Ulp1; N-terminal Ser (residue 54) from BamHI site; copies: 1;1; label: 5'-Cy5.

A further series addresses DND1 H189A;NANOS3 ZF+C (human;human, UniProt Q8IYX4;P60323 1-230;55-173, H189A|). The series is described as above. To be noted: protein: recombinant;recombinant; tags: His6-SUMO removed by Ulp1;His6-SUMO removed by Ulp1; N-terminal Ser (residue 54) from BamHI site; copies: 1;1; label: 5'-Cy5.

DND1 1-230 (RRM1-RRM2);NANOS3 ZF+C, sequence (P60323 55-173, chain 2 of 2, one chain of several): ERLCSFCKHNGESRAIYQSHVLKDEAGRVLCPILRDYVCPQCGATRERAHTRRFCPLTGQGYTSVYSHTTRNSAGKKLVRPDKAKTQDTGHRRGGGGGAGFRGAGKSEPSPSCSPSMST
DND1 K196A;NANOS3 ZF+C, sequence (Q8IYX4 1-230 K196A, chain 1 of 2): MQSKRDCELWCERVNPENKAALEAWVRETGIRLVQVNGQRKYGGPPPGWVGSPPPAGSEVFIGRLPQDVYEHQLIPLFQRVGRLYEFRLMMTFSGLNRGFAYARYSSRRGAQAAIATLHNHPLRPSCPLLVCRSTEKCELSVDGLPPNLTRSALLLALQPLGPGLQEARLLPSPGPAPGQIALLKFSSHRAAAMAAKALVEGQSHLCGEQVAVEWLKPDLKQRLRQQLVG
DND1 K196A;NANOS3 ZF+C, sequence (P60323 55-173, chain 2 of 2): as the sequence (P60323 55-173, chain 2 of 2, one chain of several) above
DND1 13-230 (del1-12);NANOS3 ZF (ZF1-ZF2), sequence (P60323 55-113, stated change not applied, chain 2 of 2, one chain of several): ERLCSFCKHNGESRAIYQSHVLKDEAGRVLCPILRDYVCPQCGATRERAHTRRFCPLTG
DND1 H189A;NANOS3 ZF+C, sequence (P60323 55-173, stated change not applied, one chain of several): as the sequence (P60323 55-173, chain 2 of 2, one chain of several) above
DND1 F93A;NANOS3 ZF+C, sequence (Q8IYX4 1-230 F93A, chain 1 of 2): as the sequence (Q8IYX4 1-230 K196A, chain 1 of 2) above, with F93A, A196K counted along it
DND1 F93A;NANOS3 ZF+C, sequence (P60323 55-173, chain 2 of 2): as the sequence (P60323 55-173, chain 2 of 2, one chain of several) above

As to AUAUCAAUUU (ssRNA) [G3C], the Kd with DND1 K196A;NANOS3 ZF+C came to 310 ± 90 nM. Take AUGCCACUCU (ssRNA) [D1-N3mut]: the Kd in the series with DND1 1-230 (RRM1-RRM2) came to 11 ± 2.1 µM; in series [1], 12 ± 3 µM. As to AUAUAAAUUU (ssRNA) [G3A], the dissociation constant Kd with DND1 K196A;NANOS3 ZF+C turned out to be 170 ± 40 nM. For AUAUGACCCAUUU (ssRNA) [spacer], the Kd with DND1 1-230 (RRM1-RRM2) is 8.2 ± 3.6 µM. For AUAUGACUCU (ssRNA) [N3mut], the figures for the equilibrium dissociation constant (Kd) (in the series with DND1 1-230 (RRM1-RRM2); in series [1]) were 6.4 ± 3.8 µM and 2.7 ± 1.1 µM, respectively. For AUGCCAAUUU (ssRNA) [D1mut] the same measures were 15 ± 4.7 µM and 15 ± 7.7 µM.

Regarding AUAUUAAUUU (ssRNA) [G3U], the dissociation constant Kd in the series with DND1 K196A;NANOS3 ZF+C was 130 ± 20 nM.

In the case of AUAUGAAUUU (ssRNA) [CDK1 N3-DRE (Cy5)], the Kd in the series with DND1 13-230 (del1-12) turned out to be 3.7 ± 1.4 µM; in series [2], 4 ± 2.4 µM; with DND1 F93A;NANOS3 ZF+C it was 1100 ± 400 nM; with DND1 H189A;NANOS3 ZF+C it was 160 ± 50 nM.
